Columns and labels:
[1] = biological target: GABARAP Y5F H9A mutant (human) (UniProt O95166); assay: ITC
[2] = biological target: GABARAP K48A mutant (human) (UniProt O95166); assay: ITC

Work on “phosphorylated TEX264 LIR (residues 269-278 with p-S271,p-S272) (peptide)” yielded a Kd [1] of 2000 nM and a Kd [2] of 2000 nM.

From doi:10.1101/2022.02.11.480038
